From patent publication US20090304715A1 (TOKYO UNIVERSITY OF SCIENCE, published 2009)

T1: recombinant FcγRIIB extracellular domain-Gly-His6-GST (human, UniProt P31994 43-217)
T1 construct: extracellular domain; Expressed in 293T cells, purified on Ni-NTA; also called FcγRIIB/Gly-His6-GST; not shown: GST amplified from pGEX-2TK
T1 sequence: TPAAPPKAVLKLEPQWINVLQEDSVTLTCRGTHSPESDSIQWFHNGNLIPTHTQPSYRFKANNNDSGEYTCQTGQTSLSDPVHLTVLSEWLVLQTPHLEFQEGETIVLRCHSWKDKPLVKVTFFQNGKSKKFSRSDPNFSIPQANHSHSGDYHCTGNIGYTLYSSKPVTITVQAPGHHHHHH

T2: CD20 on CD20-positive human Burkitt's lymphoma Ramos cells (human, UniProt P11836 1-297)
T2 construct: whole, on cells; also called B cell-specific differentiation antigen CD20
T2 sequence (looked up): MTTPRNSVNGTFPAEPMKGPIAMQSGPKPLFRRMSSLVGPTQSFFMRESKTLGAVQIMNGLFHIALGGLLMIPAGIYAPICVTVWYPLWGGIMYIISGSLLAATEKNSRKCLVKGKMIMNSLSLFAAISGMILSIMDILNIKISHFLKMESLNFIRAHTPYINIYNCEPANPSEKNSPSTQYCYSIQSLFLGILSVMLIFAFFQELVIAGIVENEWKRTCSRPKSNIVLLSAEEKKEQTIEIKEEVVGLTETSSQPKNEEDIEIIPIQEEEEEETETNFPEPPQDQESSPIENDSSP

T3: recombinant FcγRIIA extracellular domain-Gly-His6-GST (human, UniProt P12318 34-217)
T3 construct: extracellular domain; Expressed in 293T cells, purified on Ni-NTA; also called FcγRIIA/Gly-His6-GST; not shown: GST amplified from pGEX-2TK
T3 sequence: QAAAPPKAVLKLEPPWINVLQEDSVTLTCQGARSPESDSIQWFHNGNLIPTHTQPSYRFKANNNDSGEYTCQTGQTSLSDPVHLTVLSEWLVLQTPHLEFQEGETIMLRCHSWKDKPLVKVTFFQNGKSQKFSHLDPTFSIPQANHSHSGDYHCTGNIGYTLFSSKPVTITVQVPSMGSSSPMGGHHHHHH


Assays:
[1] = target: T1, recombinant FcγRIIB extracellular …; assay: ELISA, plate-coated recombinant FcγRIIB; Ab50 = antibody concentration at 50% of maximal binding
Procedure: (§1) The prepared FcγR (FcγRIA, FcγRIIA, FcγRIIB, FcγRIIIA^Val, and FcγRIIIA^Phe) were adjusted to 4 μg/ml with PBS, aliquoted into 96-well plates at 50 μl per well, and allowed to stand at 4° C. overnight. Then the solutions were discarded and 180 μl of ELISA Assay buffer (0.5% BSA, 2 mM EDTA, 0.05% Tween20, 25 mM TBS (pH 7.4)) was added to each well. The plates were allowed to stand and blocked at 37° C. for 2 hours. The solutions were discarded, 50 μl of antibody solutions serially diluted with ELISA Assay buffer were added to each well and allowed to react at 37° C. for two hours. The antibody solutions were discarded and wells were washed three times with 150 μl of ELISA Assay buffer. 50 μl of ELISA Assay buffer containing 0.33 μg/ml HRP-labeled goat anti-human Kappa chain antibody was aliquoted into each well and allowed to stand at 37° C. for one hour. After the antibody solution was removed, wells were washed three times with 150 μl of ELISA Assay buffer. 50 μl of a substrate solution (sodium citrate buffer (pH 5.0) containing 0.4% o-phenylenediamine dihydrochloride and 0.003% H₂O₂) was aliquoted and allowed to stand at room temperature in the dark for ten minutes. Then measurements at A450 were carried out using a microplate reader (FIG. 9).

[2] = target: T4, recombinant FcγRIIIA (Val^158 type) extracellular domain-Gly-His6-GST (human, UniProt P08637 17-208); assay: ELISA, plate-coated recombinant FcγRIIIA (Val158); Ab50 = antibody concentration at 50% of maximal binding
T4 construct: extracellular domain; Valine at position 158 (printed once as 157V); The database entry may carry Phe at this position; also called type-V FcγRIIIA; FcγRIIIA(157V); not shown: GST amplified from pGEX-2TK
Procedure: as §1

[3] = target: T2, CD20 on CD20-positive human Burkitt's …; assay: flow cytometry on CD20-positive Ramos cells, antibody 50 nM, FITC anti-human kappa
Procedure: CD20-positive human Burkitt's lymphoma Ramos cells were cultured using RPMI1640 containing 10% heat-inactivated fetal bovine serum, 1 mM sodium pyruvate (Wako), 100 U/ml penicillin, and 100 μg/ml streptomycin at 37° C. under 5% CO₂. The Ramos cell culture solution was centrifuged at 600 g for five minutes. After the medium was removed, the cells were suspended in an appropriate volume of medium. After another centrifugation at 600 g for five minutes, the medium was removed. 5 ml of FACS buffer (PBS containing 0.1% BSA and 0.02% NaN₃) was added to suspend the cells, and this was left on ice and blocked for 30 minutes. The supernatant was removed after centrifugation at 600 g for five minutes, cells were suspended at 5×10⁶ cells/ml in FACS buffer, and 100 μl were aliquoted per 1.5-ml tube. […] The supernatants were removed, and cells were washed by adding 500 μl of FACS buffer. This process was repeated twice to completely remove the non-reacted antibodies. Cells were suspended in 100 μl of FACS buffer containing 20 μg/ml FITC-labeled goat anti-human Kappa chain antibody (Biosource International), and allowed to stand on ice in the dark for 30 minutes. Cells were washed with the method described above, suspended in 100 μl of FACS buffer, filtered through a mesh with a hole size of 59 μm, and transferred into FACS tubes. The CD20 binding activity of each antibody was analyzed by fluorescence measurement using FACScan (Becton Dickinson) (FIG. 8).

[4] = target: T5, recombinant FcγRIA extracellular domain-Gly-His6-GST (human, UniProt P12314 16-292); assay: ELISA, plate-coated recombinant FcγRIA extracellular domain-Gly-His6-GST, HRP anti-human kappa
T5 construct: extracellular domain; Residues from the XbaI junction between receptor and tag are not spelled out; also called FcγRIA/Gly-His6-GST; not shown: GST amplified from pGEX-2TK
Procedure: as §1

[5] = target: T3, recombinant FcγRIIA extracellular …; assay: ELISA, plate-coated recombinant FcγRIIA; Ab50 = antibody concentration at 50% of maximal binding; reference M
Procedure: as §1

T5 sequence (P12314 other isoform, or with tags, fused parts or gaps): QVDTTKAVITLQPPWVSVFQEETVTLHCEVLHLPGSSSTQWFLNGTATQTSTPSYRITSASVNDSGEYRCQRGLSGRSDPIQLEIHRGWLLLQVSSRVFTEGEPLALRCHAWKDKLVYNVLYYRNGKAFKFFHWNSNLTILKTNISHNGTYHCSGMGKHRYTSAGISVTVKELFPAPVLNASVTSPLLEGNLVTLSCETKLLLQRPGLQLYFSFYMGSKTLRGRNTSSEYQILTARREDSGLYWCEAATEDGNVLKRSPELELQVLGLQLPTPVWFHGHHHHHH
T4 sequence (P08637 other isoform, or with tags, fused parts or gaps): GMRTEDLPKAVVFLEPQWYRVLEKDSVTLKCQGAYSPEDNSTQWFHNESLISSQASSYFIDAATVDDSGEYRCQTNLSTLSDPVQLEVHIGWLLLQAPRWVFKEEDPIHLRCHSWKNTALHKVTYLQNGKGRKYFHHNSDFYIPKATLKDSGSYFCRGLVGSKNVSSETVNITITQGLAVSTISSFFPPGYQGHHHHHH

| Binder | EC50 [1] [nM] | EC50 [2] [nM] | binding result [3] | binding result [4] | fold difference of Ab50 against M [5] [times] |
| --- | --- | --- | --- | --- | --- |
| modified anti-CD20 antibody, Fc trimer with three G4S spacers (T3) (antibody) heavy: not shown light: QIVLSQSPAILSASPGEKVTMTCRASSSLSFMHWYQQKPGSSPKPWIYATSNLASGVPARFSGSGSGTSYSLTISRVEAEDAATYFCHQWSSNPLTFGAGTKLLETVAAPSVFIFPPSDEQLKSGTASVVCLLNNFYPREAKVQWKVDNALQSGNSQESVTEQDSKDSTYSLSSTLTLSKADYEKHKVYACEVTHQGLSSPVTKSFNRGEC | ~0.5 | ~0.5 | – | – | ~100 |
| modified anti-CD20 antibody, Fc trimer with two G4S spacers (T2) (antibody) heavy: not shown light: QIVLSQSPAILSASPGEKVTMTCRASSSLSFMHWYQQKPGSSPKPWIYATSNLASGVPARFSGSGSGTSYSLTISRVEAEDAATYFCHQWSSNPLTFGAGTKLLETVAAPSVFIFPPSDEQLKSGTASVVCLLNNFYPREAKVQWKVDNALQSGNSQESVTEQDSKDSTYSLSSTLTLSKADYEKHKVYACEVTHQGLSSPVTKSFNRGEC | ~0.5 | ~0.5 | – | – | ~100 |
| modified anti-CD20 antibody, Fc dimer with one G4S spacer (D1) (antibody) heavy: not shown light: QIVLSQSPAILSASPGEKVTMTCRASSSLSFMHWYQQKPGSSPKPWIYATSNLASGVPARFSGSGSGTSYSLTISRVEAEDAATYFCHQWSSNPLTFGAGTKLLETVAAPSVFIFPPSDEQLKSGTASVVCLLNNFYPREAKVQWKVDNALQSGNSQESVTEQDSKDSTYSLSSTLTLSKADYEKHKVYACEVTHQGLSSPVTKSFNRGEC | – | ~30 | – | – | – |
| modified anti-CD20 antibody, Fc trimer with no spacer (T0) (antibody) heavy: not shown light: QIVLSQSPAILSASPGEKVTMTCRASSSLSFMHWYQQKPGSSPKPWIYATSNLASGVPARFSGSGSGTSYSLTISRVEAEDAATYFCHQWSSNPLTFGAGTKLLETVAAPSVFIFPPSDEQLKSGTASVVCLLNNFYPREAKVQWKVDNALQSGNSQESVTEQDSKDSTYSLSSTLTLSKADYEKHKVYACEVTHQGLSSPVTKSFNRGEC | – | ~2 | binds | binds | ~100 |

Further lines, results first:

| EC50 [1] [nM] | EC50 [2] [nM] | binding result [3] | binding result [4] | fold difference of Ab50 against M [5] [times] | Binder |
| --- | --- | --- | --- | --- | --- |
| ~50 | ~30 | binds | binds | – | mouse/human chimeric anti-CD20 antibody, Fc monomer (M) (antibody, Variable regions of mouse 1F5, human IgG1/kappa constant regions; Produced in CHO DG44; also called Anti-CD20 HC Fc Monomer) heavy: not shown light: QIVLSQSPAILSASPGEKVTMTCRASSSLSFMHWYQQKPGSSPKPWIYATSNLASGVPARFSGSGSGTSYSLTISRVEAEDAATYFCHQWSSNPLTFGAGTKLLETVAAPSVFIFPPSDEQLKSGTASVVCLLNNFYPREAKVQWKVDNALQSGNSQESVTEQDSKDSTYSLSSTLTLSKADYEKHKVYACEVTHQGLSSPVTKSFNRGEC |
| – | ~2 | binds | binds | – | modified anti-CD20 antibody, Fc dimer with no spacer (D0) (antibody) heavy: not shown light: QIVLSQSPAILSASPGEKVTMTCRASSSLSFMHWYQQKPGSSPKPWIYATSNLASGVPARFSGSGSGTSYSLTISRVEAEDAATYFCHQWSSNPLTFGAGTKLLETVAAPSVFIFPPSDEQLKSGTASVVCLLNNFYPREAKVQWKVDNALQSGNSQESVTEQDSKDSTYSLSSTLTLSKADYEKHKVYACEVTHQGLSSPVTKSFNRGEC |
| ~0.5 | ~0.5 | – | – | ~100 | modified anti-CD20 antibody, Fc trimer with one G4S spacer (T1) (antibody) heavy: not shown light: QIVLSQSPAILSASPGEKVTMTCRASSSLSFMHWYQQKPGSSPKPWIYATSNLASGVPARFSGSGSGTSYSLTISRVEAEDAATYFCHQWSSNPLTFGAGTKLLETVAAPSVFIFPPSDEQLKSGTASVVCLLNNFYPREAKVQWKVDNALQSGNSQESVTEQDSKDSTYSLSSTLTLSKADYEKHKVYACEVTHQGLSSPVTKSFNRGEC |
| – | ~30 | – | – | – | modified anti-CD20 antibody, Fc dimer with two G4S spacers (D2) (antibody) heavy: not shown light: QIVLSQSPAILSASPGEKVTMTCRASSSLSFMHWYQQKPGSSPKPWIYATSNLASGVPARFSGSGSGTSYSLTISRVEAEDAATYFCHQWSSNPLTFGAGTKLLETVAAPSVFIFPPSDEQLKSGTASVVCLLNNFYPREAKVQWKVDNALQSGNSQESVTEQDSKDSTYSLSSTLTLSKADYEKHKVYACEVTHQGLSSPVTKSFNRGEC |
| ~5 | ~2 | binds | binds | ~60 | modified anti-CD20 antibody, Fc dimer with three G4S spacers (D3) (antibody) heavy: not shown light: QIVLSQSPAILSASPGEKVTMTCRASSSLSFMHWYQQKPGSSPKPWIYATSNLASGVPARFSGSGSGTSYSLTISRVEAEDAATYFCHQWSSNPLTFGAGTKLLETVAAPSVFIFPPSDEQLKSGTASVVCLLNNFYPREAKVQWKVDNALQSGNSQESVTEQDSKDSTYSLSSTLTLSKADYEKHKVYACEVTHQGLSSPVTKSFNRGEC |
